# Earlier results as cited in PMC4771075.
# Target: kappa opioid receptor (Rattus norvegicus) (UniProt P34975)
# Experiment: radioligand
# kappa opioid receptor (Rattus norvegicus), sequence (P34975 whole entry): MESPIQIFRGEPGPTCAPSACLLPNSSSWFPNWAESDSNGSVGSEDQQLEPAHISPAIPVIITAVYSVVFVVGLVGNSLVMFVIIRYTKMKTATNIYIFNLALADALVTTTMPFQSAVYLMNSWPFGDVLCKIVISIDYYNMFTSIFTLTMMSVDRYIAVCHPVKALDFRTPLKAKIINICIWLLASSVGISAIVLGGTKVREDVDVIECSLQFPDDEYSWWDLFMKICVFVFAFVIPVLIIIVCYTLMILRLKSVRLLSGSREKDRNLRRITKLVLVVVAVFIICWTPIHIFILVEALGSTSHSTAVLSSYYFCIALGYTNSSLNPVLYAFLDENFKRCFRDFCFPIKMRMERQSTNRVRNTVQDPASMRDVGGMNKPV
substance,measurement,value
Dyn A(1-11)NH2 1-11 (from UniProt P01213),Ki,570 pM
